From the RNAGym collection of RNA variant scans (doi:10.1021/acssynbio.7b00057) come the findings set out here.

B1: Pistol ribozyme (parent)
chain: GGGUCGUUGUUCCAUAAUCGCGUGGAUAUGGCACGCAAGUUUCUACCGGGCACCGUAAAUGUCCGACUGGAGCCGUUCGGGCGGCUAUAAACAGACCUCAGGCCCGAAGCGUGGCGGCACCUGCCGCCGGUGGUAAAAAAGAUCGGAAGAGCACACGUCU

Variants of B1 are the subject of the data set. The data set can be described thus: aptazyme ON/OFF ratio, guanine; higher = stronger switching; co-transcriptional cleavage with and without guanine.
As to G9A U10A C12U, the “aptazyme ON/OFF ratio” value is 1.86. For G9A U10A C12A the value was 1.74; for G9A U10A C12G, 1.61. Then G9A U10A U11A C12U, with 1.68; and G9A U10A U11A C12G, with 1.83; and G9A U10A U11A C12A, with 1.66. As for U8G U10A C12A C13G, the “aptazyme ON/OFF ratio” value amounted to 1.05. Then U8G U10A C12A C13U, with 1.27; and U8G U10A C12A C13A, with 1.26. For U8G U10A U11C C13A the value was 1.03; for U8G U10A U11C C13G, 1.02; for U8G U10A U11C C13U, 1.03. Then U8G U10A U11A C12G, with 1.14. As to U8G U10A U11A C12U, the “aptazyme ON/OFF ratio” value was 1.28. Then U8G U10A U11A C12A, with 1.12. On to U8G U10A U11C C12G C13G, for which the “aptazyme ON/OFF ratio” value worked out at 1.33. As to U8G U10A U11C C12G C13U, the “aptazyme ON/OFF ratio” value stood at 1.33.

For U8G U10A U11C C12G C13A, the “aptazyme ON/OFF ratio” value was found to be 1.13. Then U8G U11G C12U C13U, with 1.21; and U8G U11G C12U C13G, with 1.24.

Regarding U8G U11G C12U C13A, the “aptazyme ON/OFF ratio” value is 1.22. Then U8G U10G U11G C12U C13A, with 1.42; and U8G U10G U11G C12U C13G, with 1.31; and U8G U10G U11G C12U C13U, with 1.34. Then U8G U11A C12U C13U, with 1.33.

In the case of U8G U11A C12U C13A, the “aptazyme ON/OFF ratio” value came to 1.18. Then U8G U11A C12U C13G, with 1.12. For U8G U11C the value was 2.46; for U8G U11G, 1.25; for U8G U11A, 3.01. Turning to G9A C12U C13A, the “aptazyme ON/OFF ratio” value worked out at 1.46. For G9A C12U C13G, the “aptazyme ON/OFF ratio” value was 1.62. For G9A C12U C13U the value was 1.32; for U8G U10A U11G C12U C13U, 1.12. As to U8G U10A U11G C12U C13A, the “aptazyme ON/OFF ratio” value stood at 1.15. For U8G U10A U11G C12U C13G the value was 1.22; for U8G U10G U11C C12U C13A, 1.06. Then U8G U10G U11C C12U C13G, with 1.14; and U8G U10G U11C C12U C13U, with 1.04. Then G9A, with 3.41; and U8G U10C U11A C12G C13U, with 1.27; and U8G U10C U11A C12G C13G, with 1.09. Regarding U8G U10C U11A C12G C13A, the “aptazyme ON/OFF ratio” value turned out to be 1.07. Then U8G U10C C12G C13G, with 1.14. In the case of U8G U10C C12G C13U, the “aptazyme ON/OFF ratio” value worked out at 1.27. Then U8G U10C C12G C13A, with 1.13; and U8G U10A U11C C12U C13G, with 1.28. Regarding U8G U10A U11C C12U C13U, the “aptazyme ON/OFF ratio” value was 1.14. U8G U10A U11C C12U C13A: the “aptazyme ON/OFF ratio” value was determined as 1.2. For U8G G9U U11C C13A the value was 1.1; for U8G G9U U11C C13G, 1.03; for U8G G9U U11C C13U, 1.08. Then G9A U10A C12U C13U, with 1.4; and G9A U10A C12U C13G, with 1.24.

For the variant G9A U10A C12U C13A, the “aptazyme ON/OFF ratio” value was 1.39. For U8G U11G C12A the value was 1.44; for U8G U11G C12U, 1.33; for U8G U11G C12G, 1.18.

With U8G U11C C12A C13A, the “aptazyme ON/OFF ratio” value was found to be 1.23. Then U8G U11C C12A C13U, with 1.14.

U8G U11C C12A C13G: the “aptazyme ON/OFF ratio” value was 1.23. Then U8G U10C U11A, with 1.89. For U8G U10C U11G the value was 1.75; for U8G U10C U11C, 1.19.

Turning to U8G U11C C12A, the “aptazyme ON/OFF ratio” value was 1.13. Then U8G U11C C12G, with 1.3; and U8G U11C C12U, with 1.26. U8G U10A U11A C12G C13U: the “aptazyme ON/OFF ratio” value came to 1.07. Then U8G U10A U11A C12G C13A, with 1.12; and U8G U10A U11A C12G C13G, with 1.21. For G9A U10A C13G the value was 1.14. For G9A U10A C13A the value was 1.41; for G9A U10A C13U, 1.5; for U8G G9U U11G C13U, 1.05. In the case of U8G G9U U11G C13A, the “aptazyme ON/OFF ratio” value was determined as 1.06. For U8G G9U U11G C13G the value was 1.04; for U8G U10A U11G C12U, 1.23. Then U8G U10A U11G C12A, with 1.12; and U8G U10A U11G C12G, with 1.2; and U8G U10C U11C C13U, with 1.04. For U8G U10C U11C C13A the value was 1.03; for U8G U10C U11C C13G, 1.03.

In the case of G9A U10A C12G C13G, the “aptazyme ON/OFF ratio” value came out at 1.33. On to G9A U10A C12G C13U, for which the “aptazyme ON/OFF ratio” value was 1.57.
